This passage reports mobile fraction (FRAP, free Alexa488-EGF in the medium) results from PMC8570598.

This assay deals with Rat tail collagen-I (polymerized fibrillar collagen type I) (rat) (UniProt P02454). The experiment in a line: FRAP.
Sequence of UniProt P02454 (P02454 152-1207, chain 1 of 2): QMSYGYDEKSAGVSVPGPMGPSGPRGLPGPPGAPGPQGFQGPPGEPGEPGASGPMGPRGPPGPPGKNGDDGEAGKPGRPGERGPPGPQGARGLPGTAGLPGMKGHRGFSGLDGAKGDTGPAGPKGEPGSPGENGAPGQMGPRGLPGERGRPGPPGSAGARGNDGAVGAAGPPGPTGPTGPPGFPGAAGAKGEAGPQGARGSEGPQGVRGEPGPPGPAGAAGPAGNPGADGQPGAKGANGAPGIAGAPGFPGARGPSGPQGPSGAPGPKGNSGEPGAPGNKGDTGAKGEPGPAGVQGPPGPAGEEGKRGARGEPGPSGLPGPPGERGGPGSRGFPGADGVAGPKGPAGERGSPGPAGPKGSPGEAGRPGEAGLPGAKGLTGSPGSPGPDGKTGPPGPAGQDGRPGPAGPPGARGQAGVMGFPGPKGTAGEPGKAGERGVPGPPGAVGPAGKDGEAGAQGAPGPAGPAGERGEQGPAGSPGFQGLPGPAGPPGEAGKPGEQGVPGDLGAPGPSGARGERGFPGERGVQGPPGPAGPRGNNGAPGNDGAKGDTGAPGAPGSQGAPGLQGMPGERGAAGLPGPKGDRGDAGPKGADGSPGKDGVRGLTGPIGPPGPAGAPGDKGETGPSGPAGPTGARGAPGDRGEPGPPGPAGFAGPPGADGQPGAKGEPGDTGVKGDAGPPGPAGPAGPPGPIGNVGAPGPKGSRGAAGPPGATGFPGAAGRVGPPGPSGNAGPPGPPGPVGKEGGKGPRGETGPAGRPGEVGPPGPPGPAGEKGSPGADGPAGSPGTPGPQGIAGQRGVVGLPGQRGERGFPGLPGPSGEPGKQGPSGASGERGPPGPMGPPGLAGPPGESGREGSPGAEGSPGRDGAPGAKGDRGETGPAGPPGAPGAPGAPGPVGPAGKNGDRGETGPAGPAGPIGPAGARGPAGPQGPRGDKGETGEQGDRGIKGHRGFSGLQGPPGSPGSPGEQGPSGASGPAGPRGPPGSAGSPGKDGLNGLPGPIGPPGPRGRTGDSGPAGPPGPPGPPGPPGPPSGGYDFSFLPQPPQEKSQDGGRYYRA
Sequence of UniProt P02454 (P02466 86-1125, chain 2 of 2, further chain): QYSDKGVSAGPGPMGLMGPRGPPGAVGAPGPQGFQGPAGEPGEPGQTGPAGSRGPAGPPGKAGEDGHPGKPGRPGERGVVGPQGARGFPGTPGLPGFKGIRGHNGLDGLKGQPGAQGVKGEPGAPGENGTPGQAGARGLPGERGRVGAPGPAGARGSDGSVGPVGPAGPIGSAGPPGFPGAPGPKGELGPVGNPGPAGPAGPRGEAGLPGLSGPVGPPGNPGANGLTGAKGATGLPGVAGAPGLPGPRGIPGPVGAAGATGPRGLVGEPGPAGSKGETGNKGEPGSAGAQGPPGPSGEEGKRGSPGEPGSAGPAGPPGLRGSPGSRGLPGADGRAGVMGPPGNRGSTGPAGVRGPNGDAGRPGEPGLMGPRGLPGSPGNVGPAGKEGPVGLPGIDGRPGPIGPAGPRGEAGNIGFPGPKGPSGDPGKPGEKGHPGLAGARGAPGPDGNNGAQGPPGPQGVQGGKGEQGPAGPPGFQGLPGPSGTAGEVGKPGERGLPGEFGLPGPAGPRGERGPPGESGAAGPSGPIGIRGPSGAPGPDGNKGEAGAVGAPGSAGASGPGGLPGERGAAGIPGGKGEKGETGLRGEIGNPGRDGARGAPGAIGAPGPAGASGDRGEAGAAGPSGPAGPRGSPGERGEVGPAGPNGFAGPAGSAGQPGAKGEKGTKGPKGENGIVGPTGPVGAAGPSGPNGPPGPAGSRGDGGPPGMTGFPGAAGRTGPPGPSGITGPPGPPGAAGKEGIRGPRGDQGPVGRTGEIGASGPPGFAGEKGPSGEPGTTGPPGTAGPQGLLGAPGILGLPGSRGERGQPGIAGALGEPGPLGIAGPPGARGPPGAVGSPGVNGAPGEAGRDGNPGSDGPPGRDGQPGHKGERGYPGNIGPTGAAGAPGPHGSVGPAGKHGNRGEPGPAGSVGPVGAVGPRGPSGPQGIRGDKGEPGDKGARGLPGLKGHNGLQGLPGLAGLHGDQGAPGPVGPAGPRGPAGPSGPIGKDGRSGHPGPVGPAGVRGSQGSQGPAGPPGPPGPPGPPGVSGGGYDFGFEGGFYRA

“Alexa488-labeled epidermal growth factor (EGF) (ligand)” displayed a mobile fraction (FRAP, free Alexa488-EGF in the medium) of 50%.
